# According to paper PMC9640981, “Plant vernalization proteins contain unusual PHD superdomains without histone H3 binding activity” (The Journal of Biological Chemistry, 2022):
# “Also recorded” adds a separate entry of the source.
# B1: 63-mer RNA: FLC RNA transcript, 5′ GGGAAAGAGAAAACGCUUAGUAUCUCCGGCGACUUGAACCCAAACCUGAGGAUCAAAUUAGGG 3′ (nucleic acid)
# chain: GGGAAAGAGAAAACGCUUAGUAUCUCCGGCGACUUGAACCCAAACCUGAGGAUCAAAUUAGGG
# modifications: RNA, backbone not given here; further chemistry not fully specified
# Key:
# VIN3 PHD superdomain = test: Interaction of negatively charged polymers with VIN3 PHD superdomain (NMR and ITC, summary); assay type: binding, Phoenix dactylifera; settings: listed as RNA
# Protocol: ITC was carried out at 25 °C with an iTC 200 Microcalorimeter (GE Healthcare) in 25 mM Tris pH 8, 150 mM NaCl, and 1 mM DTT. Titrations consisted of 19 consecutive 2 μl injections of 0.25 to 1 mM peptide solution (following a preinjection of 0.5 μl) into 50 μM protein (VIN3PHD, VIN3_123-326, VIN3_116-307, OBE1_193-372, or pVP13 VIN3_130-299) at time intervals of 120 s. ITC data were analyzed using MicroCal PEAQ-IT Analysis Software (Malvern Sciences).
# For NMR spectroscopy, A. thaliana VIN3_150-208 and P. dactilyfera VIN3_123-326 were expressed in M9 minimal medium supplemented with 0.4% glucose, antibiotics, trace elements, 25 ml overnight culture, and 2 g of ^15N-H4Cl per liter of expression culture. Cultures were grown and processed essentially as described before. NMR samples containing 50 μM ^15N-labeled VIN3_150-208 or VIN3_123-326 were prepared in aqueous buffer (25 mM Tris pH 8, 150 mM NaCl, and 1 mM DTT). The 50 μM ^15N-labeled VIN3_150-208 or VIN3_123-326 was incubated with 0.5 mM histone H3 peptides resuspended in 25 mM Tris pH 8, 150 mM NaCl, and 1 mM DTT for >30 min before measurement. Spectra were recorded on a Bruker Avance-III spectrometer operating at 600 MHz ^1H frequency and equipped with a 5 mm inverse detection cryogenic probe. BEST-TROSY shift correlation experiments ([45]) were acquired with 256 × 1024 points in t1 and t2, respectively. […]
# [1] = test system: ^15N-labeled Pd VIN3_123-326; test: NMR (BEST-TROSY) interaction of negatively charged polymers with Pd VIN3 PHD superdomain; assay type: binding, Phoenix dactylifera
# Protocol: For NMR spectroscopy, A. thaliana VIN3_150-208 and P. dactilyfera VIN3_123-326 were expressed in M9 minimal medium supplemented with 0.4% glucose, antibiotics, trace elements, 25 ml overnight culture, and 2 g of ^15N-H4Cl per liter of expression culture. Cultures were grown and processed essentially as described before. NMR samples containing 50 μM ^15N-labeled VIN3_150-208 or VIN3_123-326 were prepared in aqueous buffer (25 mM Tris pH 8, 150 mM NaCl, and 1 mM DTT). The 50 μM ^15N-labeled VIN3_150-208 or VIN3_123-326 was incubated with 0.5 mM histone H3 peptides resuspended in 25 mM Tris pH 8, 150 mM NaCl, and 1 mM DTT for >30 min before measurement. Spectra were recorded on a Bruker Avance-III spectrometer operating at 600 MHz ^1H frequency and equipped with a 5 mm inverse detection cryogenic probe. BEST-TROSY shift correlation experiments ([45]) were acquired with 256 × 1024 points in t1 and t2, respectively. Spectra were processed in TopSpin version 3.2 (Bruker), with linear prediction in t1, giving a digital resolution of 2.2 and 8.2 Hz/point in the processed data.
# Generation of nucleic acid probes for NMR
# FLC DNA was used as a template for the design of a dsDNA 60-mer probe, generated by annealing the sequence (5′ […] 3′) and its complementary oligonucleotide for 2 min at 95 °C. […]
molecule,measurement,setting,value
B1,propensity for interaction with negatively charged polymers (in words),VIN3 PHD superdomain,moderate propensity for interacting; also recorded: interact weakly; also recorded: can interact instead with negatively charged polymers
same,perturbation of BEST-TROSY spectrum (in words),"[1]; 50 μM ^15N-labeled VIN3_123-326, 4 μM 60-mer dsDNA or 63-mer RNA (Fig. 6A, B), ssDNA comparison E. F.-E., unpublished",produced perturbations of the same individual crosspeaks
same,minimal concentration required to produce spectral perturbations,"[1]; BEST-TROSY, 50 μM ^15N-labeled VIN3_123-326, 25 mM Tris pH 8, 150 mM NaCl, 1 mM DTT",2 µM
